From EP4563596A1 (OncoSpear ApS, dated 2025)

B1: OS005 (antibody, human IgG1, kappa)
heavy: QVQLQESGPGLVKPSETLSLTCTVSGYSITSDYAWNWIRQFPGNKLEWMGYITYSGSTYYNPSLKSRVTISVDTSKNQFSLKLSSVTAADTATYYCVSGTYYFDYWGQGTTLTVSSASTKGPSVFPLAPSSKSTSGGTAALGCLVKDYFPEPVTVSWNSGALTSGVHTFPAVLQSSGLYSLSSVVTVPSSSLGTQTYICNVNHKPSNTKVDKKVEPKSCDKTHTCPPCPAPELVGGPSVFLLPPKPKDTLMISRTPEVTCVVVDVSHEDPEVKFNWYVDGVEVHNAKTKPPEEQYNSTLRVVSVLTVLHQDWLNGKEYKCKVSNKALPAPIEKTISKAKGQPREPQVYTLPPSRDELTKNQVSLTCLVKGFYPSDIAVEWESNGQPENNYKTTPLVLDSDGSFFLYSKLTVDKSRWQQGNVFSCSVMHEALHNHYTQKSLSLSPGK
light: DIVMTQSPSSLSASVGDRVTITCRASQSVSSDVAWFQQKPGKSPKPLIYYASNRYSGVPSRFSGSGSGTDFTLTISSLQAEDFAVYFCGQDYTSPRTFGGGTKLEIKRTVAAPSVFIFPPSDEQLKSGTASVVCLLNNFYPREAKVQWKVDNALQSGNSQESVTEQDSKDSTYSLSSTLTLSKADYEKHKVYACEVTHQGLSSPVTKSFNRGEC
B2: OS006 (antibody, human IgG1, kappa)
heavy: QVQLQESGPGLVKPSETLSLTCTVSGYSITSDYAWNWIRQFPGNKLEWMGYITYSGSTYYNPSLKSRVTISVDTSKNQFSLKLSSVTAADTATYYCVSGTYYFDYWGQGTTLTVSSASTKGPSVFPLAPSSKSTSGGTAALGCLVKDYFPEPVTVSWNSGALTSGVHTFPAVLQSSGLYSLSSVVTVPSSSLGTQTYICNVNHKPSNTKVDKKVEPKSCDKTHTCPPCPAPELLGGPDVFLFPPKPKDTLMISRTPEVTCVVVDVSHEDPEVKFNWYVDGVEVHNAKTKPREEQYNSTYRVVSVLTVLHQDWLNGKEYKCKVSNKALPLPEEKTISKAKGQPREPQVYTLPPSRDELTKNQVSLTCLVKGFYPSDIAVEWESNGQPENNYKTTPPVLDSDGSFFLYSKLTVDKSRWQQGNVFSCSVMHEALHNHYTQKSLSLSPGK
light: DIVMTQSPSSLSASVGDRVTITCRASQSVSSDVAWFQQKPGKSPKPLIYYASNRYSGVPSRFSGSGSGTDFTLTISSLQAEDFAVYFCGQDYTSPRTFGGGTKLEIKRTVAAPSVFIFPPSDEQLKSGTASVVCLLNNFYPREAKVQWKVDNALQSGNSQESVTEQDSKDSTYSLSSTLTLSKADYEKHKVYACEVTHQGLSSPVTKSFNRGEC
B3: OS009 (antibody, human IgG1, kappa)
heavy: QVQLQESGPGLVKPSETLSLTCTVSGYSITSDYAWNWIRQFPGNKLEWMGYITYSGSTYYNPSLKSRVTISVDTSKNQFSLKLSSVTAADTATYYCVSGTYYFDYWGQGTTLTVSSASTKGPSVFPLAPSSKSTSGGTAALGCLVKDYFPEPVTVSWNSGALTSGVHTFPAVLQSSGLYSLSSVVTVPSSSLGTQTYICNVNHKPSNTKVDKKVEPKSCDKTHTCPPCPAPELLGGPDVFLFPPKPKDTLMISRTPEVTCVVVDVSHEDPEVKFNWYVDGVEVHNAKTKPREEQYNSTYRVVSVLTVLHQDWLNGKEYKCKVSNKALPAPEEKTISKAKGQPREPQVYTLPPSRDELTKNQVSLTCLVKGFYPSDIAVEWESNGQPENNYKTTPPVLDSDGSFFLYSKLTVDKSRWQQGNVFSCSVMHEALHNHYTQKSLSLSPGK
light: DIVMTQSPSSLSASVGDRVTITCRASQSVSSDVAWFQQKPGKSPKPLIYYASNRYSGVPSRFSGSGSGTDFTLTISSLQAEDFAVYFCGQDYTSPRTFGGGTKLEIKRTVAAPSVFIFPPSDEQLKSGTASVVCLLNNFYPREAKVQWKVDNALQSGNSQESVTEQDSKDSTYSLSSTLTLSKADYEKHKVYACEVTHQGLSSPVTKSFNRGEC
B4: OS017 (antibody, human IgG1, kappa)
heavy: not shown
light: DIVMTQSPSSLSASVGDRVTITCRASQSVSSDVAWFQQKPGKSPKPLIYYASNRYSGVPSRFSGSGSGTDFTLTISSLQAEDFAVYFCGQDYTSPRTFGGGTKLEIKRTVAAPSVFIFPPSDEQLKSGTASVVCLLNNFYPREAKVQWKVDNALQSGNSQESVTEQDSKDSTYSLSSTLTLSKADYEKHKVYACEVTHQGLSSPVTKSFNRGEC
modifications: afucosylated glycan (GlymaxX expression)
B5: OS001 (antibody, human IgG1, kappa)
heavy: not shown
light: DIVMTQSPSSLSASVGDRVTITCRASQSVSSDVAWFQQKPGKSPKPLIYYASNRYSGVPSRFSGSGSGTDFTLTISSLQAEDFAVYFCGQDYTSPRTFGGGTKLEIKRTVAAPSVFIFPPSDEQLKSGTASVVCLLNNFYPREAKVQWKVDNALQSGNSQESVTEQDSKDSTYSLSSTLTLSKADYEKHKVYACEVTHQGLSSPVTKSFNRGEC

What was measured:
Experiment in all cases: cell-based or functional assay
[1] = target: T1, CD16 F158 (FcγRIIIA) on Jurkat reporter cells (human, UniProt P08637 17-254)
T1 sequence (P08637 17-254): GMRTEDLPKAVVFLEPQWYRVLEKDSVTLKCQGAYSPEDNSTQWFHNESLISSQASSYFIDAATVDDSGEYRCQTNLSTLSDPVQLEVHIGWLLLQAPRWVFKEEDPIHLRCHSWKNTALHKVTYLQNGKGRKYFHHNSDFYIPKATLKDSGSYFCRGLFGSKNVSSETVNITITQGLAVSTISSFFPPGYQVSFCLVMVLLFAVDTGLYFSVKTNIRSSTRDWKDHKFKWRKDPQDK

[2] = target: T2, CD16 V158 (FcγRIIIA) on Jurkat reporter cells (human, UniProt P08637 17-254)
T2 sequence (P08637 17-254 F176V): as the sequence (P08637 17-254) above, with F160V counted along it

[3] = target: T1, CD16 F158 (FcγRIIIA) on Jurkat reporter …; remark: listed apart in the source
[4] = target: T2, CD16 V158 (FcγRIIIA) on Jurkat reporter …; remark: listed apart in the source
[5] = target: full length human CD163 on cells (human, UniProt Q86VB7 42-1156)
full length human CD163 on cells, sequence (Q86VB7 42-1156 limits assumed): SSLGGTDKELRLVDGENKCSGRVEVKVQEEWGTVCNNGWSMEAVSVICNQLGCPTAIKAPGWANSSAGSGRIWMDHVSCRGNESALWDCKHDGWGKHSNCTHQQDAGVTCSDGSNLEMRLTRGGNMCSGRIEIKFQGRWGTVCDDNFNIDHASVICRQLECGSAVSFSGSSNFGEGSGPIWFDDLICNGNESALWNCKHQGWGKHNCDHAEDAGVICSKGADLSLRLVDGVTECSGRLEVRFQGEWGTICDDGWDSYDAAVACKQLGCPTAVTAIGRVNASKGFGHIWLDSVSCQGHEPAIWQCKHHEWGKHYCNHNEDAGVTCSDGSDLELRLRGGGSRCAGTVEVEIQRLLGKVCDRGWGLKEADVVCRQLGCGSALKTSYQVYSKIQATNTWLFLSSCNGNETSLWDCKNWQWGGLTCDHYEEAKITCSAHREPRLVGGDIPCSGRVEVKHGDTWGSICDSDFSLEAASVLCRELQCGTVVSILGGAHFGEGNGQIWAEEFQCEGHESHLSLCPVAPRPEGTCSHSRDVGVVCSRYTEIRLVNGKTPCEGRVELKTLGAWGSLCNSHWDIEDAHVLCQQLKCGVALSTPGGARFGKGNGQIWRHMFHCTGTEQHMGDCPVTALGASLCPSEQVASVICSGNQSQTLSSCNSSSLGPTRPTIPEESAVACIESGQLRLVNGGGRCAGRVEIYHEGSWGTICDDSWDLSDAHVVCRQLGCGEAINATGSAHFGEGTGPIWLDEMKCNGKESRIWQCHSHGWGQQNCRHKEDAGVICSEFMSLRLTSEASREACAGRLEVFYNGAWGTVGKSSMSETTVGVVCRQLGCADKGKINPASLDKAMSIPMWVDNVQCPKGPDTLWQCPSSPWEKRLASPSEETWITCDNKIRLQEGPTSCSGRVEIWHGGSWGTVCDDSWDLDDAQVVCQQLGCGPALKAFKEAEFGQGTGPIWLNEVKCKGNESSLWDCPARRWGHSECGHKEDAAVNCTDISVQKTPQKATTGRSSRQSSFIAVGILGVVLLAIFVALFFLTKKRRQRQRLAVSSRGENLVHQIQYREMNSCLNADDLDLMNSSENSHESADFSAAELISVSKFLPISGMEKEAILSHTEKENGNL

Binder | Relative EC50 ADCC (CD16 F158); target cells M2c macrophages [1] | Relative EC50 ADCC (CD16 V158); target cells M2c macrophages [2] | Relative EC50 ADCC F158 (low); target cells FlpIn293-hCD163 [3] | Relative EC50 ADCC V158 (high); target cells FlpIn293-hCD163 [4] | EC50 of PBMC mediated cytotoxicity in CD163 expressing macrophages [5]
B1 | 13 relative (normalized to OS001) | 23 relative (normalized to OS001) | 5.4 relative (EC50 OS001/EC50 construct) | 2.2 relative (EC50 OS001/EC50 construct) | –
B2 | 71 relative (normalized to OS001) | 26 relative (normalized to OS001) | 2.5 relative (EC50 OS001/EC50 construct) | 5.9 relative (EC50 OS001/EC50 construct) | –
B3 | 12 relative (normalized to OS001) | 23 relative (normalized to OS001) | 7 relative (EC50 OS001/EC50 construct) | 7.6 relative (EC50 OS001/EC50 construct) | 2.8 ng/mL
B4 | 111 relative (normalized to OS001) | 39 relative (normalized to OS001) | 17.6 relative (EC50 OS001/EC50 construct) | 11.2 relative (EC50 OS001/EC50 construct) | 2.6 ng/mL
B5 | 1 relative (normalized to OS001) | 1 relative (normalized to OS001) | 1 relative (EC50 OS001/EC50 construct) | 1 relative (EC50 OS001/EC50 construct) | –
